From the RNAGym collection of RNA variant scans (doi:10.1073/pnas.2313332121)

B1: TPR t1 (parent)
chain: GACCAAUCUGCCCUCAGAGCUCGAGAACAUCUUCGGAUGCAGAGGAGGCAGGCUUCGGUGGCGCGAUAGCGCCAACGUCCUCAACCUCCAAUGCAUCCCACCACAUGAUGAUGCCUGAAGAGCCUUGGUUUUUUG

Variants of: B1
Assay: polymerase ribozyme fitness, log enrichment relative to wild type (log ratio); higher = more active; in vitro selection for triplet polymerase activity
Procedure, shortened: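 In triplicate, a single round of in vitro selection was run on each mutant library, PCR-built and transcribed, covering one subunit of a heterodimeric triplet polymerase ribozyme. Frozen incubation at −7 °C followed annealing with a biotinylated primer, partner subunit and triplets, and extended constructs were then gel-excised, streptavidin-captured and taken through RT-PCR. Fitness is the logarithm of genotype enrichment over wild-type enrichment, from inverse-variance-weighted replicate averages of Illumina-sequenced inputs and outputs. […] only genotypes with ≥10 input reads and ≥1 read per output were kept.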

| Variant | polymerase ribozyme fitness (log ratio) |
| --- | --- |
| A2G A27U C73G C79G C104U | -6.8 |
| C3A U130A | -2.53 |
| C3A U116C | -2.44 |
| A2C C79A U129C | -2.39 |
| A2G C11G U38G C82G | -4.28 |
| A2U A41C C114U U133G | -5.64 |
| A2C G10U A37C C64U U112C | -1.73 |
| C3G G120A | -1.23 |
| C3U A18U C82A G120C | -1.8 |
| C3U A43C U87G | -3 |
| C3G G120A C124G G128C | 0.839 |
| A2U C73U | -2.69 |
| C3G C102U C124A | -2.89 |
| A2C C49G G63C A74U A75U C124A | -3.35 |
| C3A G36A G44C C72A U130A | -4.85 |
| C3U C79G C97G A121G | -5.3 |
| C3U C11U A37U C53U | -0.631 |
| C3U A27C U130C | -2.28 |
| A2U U38A G63A C88U | -4.16 |
| A2U G10U A18G U33G G60A C124A | -6.77 |
| C3A C40A A91C G117C A119U | -5.83 |
| C3U G36U G63U C88U A111U C124U | -6.17 |
| C3A G52U | -1.75 |
| A2C C72U G120U | -2.42 |

| Variant | polymerase ribozyme fitness (log ratio) |
| --- | --- |
| C3U G23C G60A U106A A111C | -6.81 |
| C3G C8G G10A A18U A41G G69C A121G | -4.57 |
| C3A G69A | -3.74 |
| A2U C8A A41U C101U U130G | -1.84 |
| C3U C12A A91U | -2.92 |
| C3G A83C | -2.39 |
| C3U C13U | -0.225 |
| A2U C64U C115G C124U | -4.43 |
| C3U C12A C82A | -1.8 |
| A2G C104U | 0.0974 |
| C3A C72A A111C | -1.3 |
| C3G C70G C80U G128C | -1.99 |
| C3G U112A C115A | -2.03 |
| A2G C88G G113C G128A U129G | -5.6 |
| C3G A5U C11U C73U C89G C123U | -1.08 |
| C3A U81G C115U | -6.22 |
| C3G A95G C101A A111C | -2.16 |
| C3U C79A G113U | -5.54 |
| A2U A5G U9G C13U C64U G122A | -1.31 |
| A2C C49A | -1.83 |
| C3U C11G U21G G113U G127A | -2.58 |
| C3U C11A | -1.47 |
| C3A U9A C12A A83G | -2.57 |
| C3G C73G | -3.19 |

| Variant | polymerase ribozyme fitness (log ratio) |
| --- | --- |
| C3U C12A | -0.942 |
| A2U G52C | -3.28 |
| C3A G117C | -3.87 |
| C3A G61C | -3.47 |
| A2U C13G G60U C85A | -4.99 |
| C3U A27U G52U C72U C76U C85U U116G C124U U129C | -7.12 |
| A2C U7A C49U U96A C101A U125G | -3.99 |
| A2U C70G | -5.04 |
| A2C C15A G25A G71U C80U G120C G135C | -4.64 |
| A2C C62U A75U G110A | -4.14 |
| C3G C70G | -4.26 |
| A2U A43U | -3.48 |
| C3G U7A C11A C40A C73U C85G | -4.89 |
| A2G C8U A83G | -0.602 |
| C3U C86A | -0.57 |
| A2U C11U C22A A41C G71U C82A C88U A121G | -6.23 |
| A2U C72A A83U C123G U126A | -0.343 |
| A2U C11G G120A U132A | 0.742 |
| C3G U109G | -5.75 |
| C3A U14G A119U G120A | -1.62 |
| A2U A46G C73U U81C | -3.83 |
| A2U A37U G48A C53U G60A C85A | -3.47 |
| A2G U87A U112A | 1.3 |
| A2U A16U U32A A41C G69U C89A | -7.42 |

| Variant | polymerase ribozyme fitness (log ratio) |
| --- | --- |
| A2G C4U C79A C115A | -5.2 |
| A2C G36A A50U G77A C123U | -2.76 |
| C3U G10U A29G G44U G57C C82U A105U G120C | -6.47 |
| C3U C123G | 1.6 |
| C3U C123A | 0.564 |
| A2U C49U | -3.77 |
| A2C G45A C53A | -1.45 |
| C3U G39U C73A C98U | -2.51 |
| C3U C72G | -0.854 |
| A2C C53A | -1.9 |
| A2U C13U C85G U131G | -3.98 |
| A2U U14A G69U C82U A119C G120U | -2.15 |
| A2C C13U G110A | -2.59 |
| A2C G69C A121U | -0.282 |
| C3A G52U C123A | -0.759 |
| C3U C49A G120A | -0.42 |
| C3U C8A C79U A121C | 1.18 |
| C3A C8A C53G C101A | -1.64 |
| A2U A16G A27U A46G G60U U106A G110A | -5.21 |
| A2G C11A | -1.77 |
| A2C G71A U112G | -2.44 |
| C3U C20G G113A | -1.16 |
| A2U A5C G63C | -3.31 |
| C3U C15U U106G | -3.3 |

| Variant | polymerase ribozyme fitness (log ratio) |
| --- | --- |
| A2U C88G | -3.37 |
| A2C C123A | -0.696 |
| A2U A37C G44A C53A G63C C124A | -3.55 |
| C3U C13A A29U G44C C124G U132C | -3.39 |
| C3U C11A C15A A121U | 0.659 |
| A2C G44A U59A U96A U112A U129A | -2.9 |
| C3U C79A G117A | -4 |
| C3A C34U C53A C89A C123G | -5.9 |
| A2U C89G | -5.02 |
| A2G C40U U55C | -1 |
| C3A C8A C62A C97U | -2.46 |
| A2U G93U | -2.62 |
| C3G C8G | -0.464 |
| A2G C73G C85A G113A G120C | -3.08 |
| C3A C99U | -3.8 |
| C3U C28U G71A C89A C123G U130C | -4.19 |
| A2C G117U U129A | -4.64 |
| A2G C72U C88U C124A | 1.45 |
| C3U C70A | -1.81 |
| A2C U78C | -1.64 |
| C3U G17A G36C C49A A50U G58C G60A C88U G117U | -6.3 |
| C3A A84G | -2.2 |
| A2U C20U G63C C89A A111C C123A | -4.79 |
| A2U U7C G44C G52C C56A | -4.24 |

| Variant | polymerase ribozyme fitness (log ratio) |
| --- | --- |
| C3A G39U C114A U125G | -3.98 |
| C3A G52U C72A C89G C104A G113U A119U C123G | -5.02 |
| C3U C62G | -2.24 |
| C3A G120U | -0.479 |
| A2U G71U | -2.05 |
| C3U C12G A46C | -0.734 |
| A2C C40G | -2.5 |
| A2U C8U G45A C73U A95G G120A | -0.341 |
| A2U C8A G19U A24U A26U U33C A108G A111C A121G | -7.47 |
| A2C C115U | -2.66 |
| C3G C12G G120A G128U | 0.37 |
| A2U G17A | -5.45 |
| A2G C34A U55A U112C | -0.554 |
| A2G G47C U81G | -3.47 |
| C3A C124G | 1.55 |
| C3G U9A G71U G110C | -5.18 |
| C3U C22G G39U C49G C70U G110U | -5.2 |
| C3U A41C C70G U112C C124U | -3.32 |
| C3U G39U G47A G117A | -4.33 |
| A2G G10U C88U A119U | -0.34 |
| A2U G63U | -4.25 |
| C3U G39A U54G G120C | 0.423 |
| C3A G39A G113A C124U | -3.14 |
| C3A U9A G52U C88G A91C G127U | -1.59 |

| Variant | polymerase ribozyme fitness (log ratio) |
| --- | --- |
| A2G C8G G57U C85A | -1.4 |
| A2U U21G C53U G58C C72U U129A | -1.46 |
| A2U U32C C62A | -4.44 |
| C3U C115U | -1.53 |
| A2C U21A C89G | -4.49 |
| A2C C13G C15U C72U | -4.37 |
| A2G A29G | -1.34 |
| A2C U9G G61U G110A | -2.69 |
| A2C G45A G57A C114U C124U G127C | -5.9 |
| A2C C62U | -2.03 |
| C3U C56G G58U G113U | -4.35 |
| A2C C20A C79U G122U U125G | -3.43 |
| C3U A41C G42A U78C U92G | -3.33 |
| A2U C11U A27U G48U C64A C99G G113C | -6.93 |
| C3U C12U C53G C56U U106A A111C C123G G127A | -5.21 |
| A2G G58A U106A G122U C123U | 0.431 |
| C3A G48U G71C C101A G127A | -3.71 |
| A2G G51A | -2.94 |
| A2C G44A G113A | -4.5 |
| C3U A37C C53G U55C | -1.11 |
| C3A A6C A91U U125A | -3.02 |
| C3G C62U | -1.58 |
| A2G A74C | -0.276 |
